According to the supplement of paper PMC9170038:

System: MS2 coat protein
Experiment: apparent KD of MS2 coat protein; designed switch direction (-1 OFF switch, 1 ON switch): -1; higher = weaker reporter binding
In short: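 Designed RNA switches sharing common flanks were transcribed on Illumina chips by stalled E. coli RNA polymerase. They were titrated with SNAP-549-labelled MS2 coat protein, from 0.7 or 1.5 nM doubling to 3 µM, in Tris-HCl pH 7.5 buffer with KCl, MgCl2, BSA, DTT, tRNA and Tween-20. Titrations ran without input, with 200 uM small-molecule ligand, or with an oligonucleotide input. The apparent KD of each design is the median over its clusters, after curve-fitting of normalised cluster fluorescence.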

[1] = input ligand: microRNA oligo, concentration not stated
[2] = Eterna round: R95, input ligand: FMN 200 uM
[3] = Eterna round: R95, input ligand: microRNA oligo, concentration not stated
[4] = Eterna round: R95, input ligand: none

Sequence	apparent KD of MS2 coat protein (input ligand: FMN 200 uM)	apparent KD of MS2 coat protein [1]	apparent KD of MS2 coat protein (input ligand: none)	apparent KD of MS2 coat protein [2]	apparent KD of MS2 coat protein [3]	apparent KD of MS2 coat protein [4]
UUCGUGCAGCUUUGCUGUACGCGUACAUGAGGAUCACCCAUGUAGGAUAUGGUAGGCAAAGCUUACUAGAAGGAUAUGGUGAGC [Mat - Exclusion NG 3 - Mod of JL - D79] (Eterna round: R96, puzzle: Exclusion NG 3)	30.3 nM	15.5 nM	21.4 nM			
GAAAAGGUAGGAUAUACGAAAAAAAAGGGUAGAAAAAAAUCACAUGAGGAUCACCCAUGUAGAAGGACCAAAAG [salish99_ex2_r3_072] (puzzle: Exclusion 2)				62.3 nM	25 nM	28.3 nM
UUUUAACAUGAGGAUCACCCAUGUGAGGAUAUCGAAAUUUAUAUUAAUAUUUUUAAAACGAGAAGGCACAUUUU [JMF 67] (puzzle: Exclusion 1)					53.5 nM	
UUCACAUGGACAUGAGAUCACAUGAGGAUCACCCAUGUGAAUAACAAGCUUUUUGUUCGUCUUAUGUCCAAUAAUAA [Stov1/14-D1] (Eterna round: R97, puzzle: Sensor, turn-off variant 1)	14.1 nM		13.1 nM			
GGUCAGCUAGGAUAUACAUGAGGAUCACCCAUGUACUGACCCAUGCGGGAGCCUGCAUGUAGAAGGAGCAAUAU [Onzatiqula] (Eterna round: R97, puzzle: Exclusion 3)	37 nM		55.3 nM			
CGUCUGUAAGGAUAUGGUAGCAUUUACAUGAGGAUCACCCAUGUUACAUGGGACUAGUGAUUAGAAGGUACGAACG [EX5 #55] (Eterna round: R97, puzzle: Exclusion 5)	276 nM		322 nM			
GUGUUGCGAGGAUAUAUAAGGAAAUGUUCUUAGGAUAUGGAACAUGAGGAUCACCCAUGUAGAAGGUGCAUAUC [JR_Ex2_Sub048] (Eterna round: R97, puzzle: Exclusion 2)	48.1 nM		38.7 nM			
ACAAGCAGAGAGUAAAUGGACAUGAGGAUCACCCAUGUGAGUCCGAAGAGAUAAGAUAUAUUGUCGGCUCGUCUUAU [AK-miRNA-r3-21] (Eterna round: R97, puzzle: Sensor, turn-off variant 1)	105 nM		105 nM			
CAGUACUGAGGAUAUACAUGAGGAUCACCCAUGUGUUCCAGCUAGGAGACUAGCAAGUGUAGAAGGCAGUACUG [jl-ex3-4.01 salish99 mod] (Eterna round: R97, puzzle: Exclusion 3)	293 nM		434 nM			
CAGGUGUUAGGAUAUCGGAGAUUGAGGCAGACGGGAAUAUUCGAGAAGGAACAUGAGGAUCACCCAUGUAGUAG [JR_Exclu4_Sub036] (puzzle: Exclusion 4)					23.9 nM	
GUCUUACAUGAGGAUCACCCAUGUGAGGAUAUGGAUUCGCUGGCCGUAGCCAGUGGAUCCAGAAGGCGCGUGAU [JL-ex1-4.20] (Eterna round: R97, puzzle: Exclusion 1)	67 nM		62.5 nM			
CUGGUCCGAGGAUAUAUGAUGUGAUACAUGAGGAUCACCCAUGUUAUAUUAUGGAUGUAAAUAGAAGGCGGACUAG [Mat - Exclusion 5 - JL mod - D71] (puzzle: Exclusion 5)				71.2 nM	72.2 nM	73.9 nM
AUUUUGAAUGUAAGGAUAUCAAUACGAGGGCGUGAUGAGAAGGUACAUGAGGAUCACCCAUGUGGCGAGCUCAC [BmEX4 B.24] (Eterna round: R97, puzzle: Brourd's mod of Exclusion 4)	33.5 nM		23.7 nM			
UCUCGUUGGCAAGGAUAUCCUACAUUGUUCUGGCCCGGGCAUGCUACAUGAGGAUCACCCAUGUGGGAGAAGGUGCGCCACUGC [Design 25] (Eterna round: R96, puzzle: Exclusion NG 2)	95.5 nM	67.6 nM	108 nM			
CCGCGUGAUUAGGAUAUCAAACUAGCGUGUACAUGAGAAGGGAUCACAUGAGGAUCACCCAUGUAAGGGAUCCU [Eternabot (L1) Solution 69] (Eterna round: R97, puzzle: Exclusion 6)	93.2 nM		56.1 nM			
UAUAUGUGAGGAUAUCCUUUAUUAAUUAUUAUAUUAUAUAUGGAGAAGGCACAUGAGGAUCACCCAUGUUAUAU [lam1] (Eterna round: R97, puzzle: Exclusion 4)	72.8 nM		42.1 nM			
AGAUGUUAUAAGGAUAUGCAGGCCAUCGCAUCAGCAGAAGGUGUAACAUGAGGAUCACCCAUGUAAACGAACUG [Eternabot (L1) Solution 44] (Eterna round: R97, puzzle: Exclusion 6)	28.9 nM		22.8 nM			

Sequence	apparent KD of MS2 coat protein (input ligand: FMN 200 uM)	apparent KD of MS2 coat protein [1]	apparent KD of MS2 coat protein (input ligand: none)	apparent KD of MS2 coat protein [2]	apparent KD of MS2 coat protein [3]	apparent KD of MS2 coat protein [4]
UAUUCACAAGCGAGAUCCCACAUGAGGAUCACCCAUGUGCUCGUCUUAUAAGGUACUGUGACGAUAGUCACGGUACC [Mat - Sensor, turn-off var - Eli Mod - D86] (Eterna round: R97, puzzle: Sensor, turn-off variant 1)	17.4 nM		15 nM			
GAGGUACAUGAGGAUCACCCAUGUGAGGAUAUAGUGGAAGAUUGAGAGAGGUGGAGGACUAGAAGGCACAGUGG [JR_Exclu1_Sub039] (puzzle: Exclusion 1)					48.1 nM	
GCUUUUGGGCAAGGAUAUCCUGCGCGGUUCUGGUUCGUGUCUGUCACAUGAGGAUCACCCAUGUGGGAGAAGGUGCCUGUGGUG [Design 71] (Eterna round: R96, puzzle: Exclusion NG 2)	38.1 nM	16.9 nM	23 nM			
GAUCAUGCAGGAUAUACAUGGACCAUGAAAACAUGGUUUUCACAUGAGGAUCACCCAUGUAGAAGGGCAUGAUC [Omei Ex2 A8] (Eterna round: R97, puzzle: Exclusion 2)	275 nM		1400 nM			
UUUAGUUCAGGAUAUGUAGAUUUUAACAUGAGGAUCACCCAUGUCGAUCCUGAAUUAACUACAGAAGGGAACAUUU [Mod of Brourd 4 - Jieux - Exclusion 5] (Eterna round: R97, puzzle: Exclusion 5)	64 nM		18.8 nM			
AACCGCGGAGGAUAUACACGGUGAUACUGAACUCCGGCACGACAUGAGGAUCACCCAUGUAGAAGGCCGAAUAU [EX2 B.13] (Eterna round: R97, puzzle: Exclusion 2)	151 nM		21.3 nM			
GCAAAAUAUCAGGAUAUGACUAGCUGCGGCUAGUCAGAAGGGAUGACAUGAGGAUCACCCAUGUGAUCUCGUGU [JR_Ex6_Sub028] (Eterna round: R97, puzzle: Exclusion 6)	487 nM		177 nM			
CUCUCACAUGAGGAUCACCCAUGUCAGGAUAUCUCAGUGCAUCCACACGGACGCAUCAAGAGAAGGGACAAAAC [Vinxlusion 2 - Jieux - Exclusion 1] (Eterna round: R97, puzzle: Exclusion 1)	95 nM		59.1 nM			
UUUAUUAAUUAAUAUAAUAAGAUCACAUGAGGAUCACCCAUGUAGGAUAUCAGCUCGUGUAGAGCUGAGAAGGACAUAAUUAUA [ExNG3/1-B3] (Eterna round: R96, puzzle: Exclusion NG 3)	108 nM	27 nM	34.3 nM			
AAGUACCGUCACGAUAGUGAUGGUACAACAAGCAUGUAAACAUGAGGAUCACCCAUGUCCUCAAUUGCUCGUCUUAU [Sensor 3 - 68] (puzzle: Sensor v3, turn-off variant 2)				692 nM	570 nM	842 nM
GUAAAGUGAGGAUAUGGUAAAGUAAUUAUUUAGUAAUUAAUCCAGAAGGCACAUGAGGAUCACCCAUGUAAAUG [Mat - Exclusion 4 - D96] (puzzle: Exclusion 4)				44.6 nM	26.1 nM	28.7 nM
ACUUAUUGAGGAUAUACAGAUUAUUACAUGAGGAUCACCCAUGUUCUUCAAUGUAUAUAUGUAGAAGGCAGAAGAU [Mat - Exclusion 5 - JL Mod - D15] (Eterna round: R97, puzzle: Exclusion 5)	177 nM		57.5 nM			
AUCAUGUAAGGAUAUCUUACAUGUGACUUCGGUCACUGUUCAGAGAAGGUACAUGAGGAUCACCCAUGUAGAAC [Ex4-3: 45] (puzzle: Exclusion 4)					18.5 nM	
UGUUGUUACGCAGGAUAUGAGGAUCACCCAUAUCAGGAUAUCGAAAGAGAAUUUCUGAGGAUCACCCAGAAGGGCGGGUUAACA [pwkr exNG2 2xF5 2xFMN.37] (Eterna round: R96, puzzle: Exclusion NG 2)	125 nM	40.3 nM	47.7 nM			
CUGCUGGAGCUUUGCUUUAGUCGUACAUGAGGAUCACCCAUGUAGGAUAUGGUAGGCUUUGCUUACUAGAAGGAUAGAGUGGUC [salish99_ExNG3_r04_606] (Eterna round: R96, puzzle: Exclusion NG 3)	226 nM	66.6 nM	62 nM			
AGGAAUGAAGGAUAUACAUGAGGAUCACCCAUGUAAAAAAAGUCGUUUAUUGUGUCAUGUAGAAGGUCAAGAAG [JR_Exclusion3_Sub002] (puzzle: Exclusion 3)				29.6 nM	29.6 nM	33 nM
AAUCAACAUGAGGAUCACCCAUGUGAGGAUAUACGCAUGCAUGCAUGCAUGCAUGCAAGUAGAAGGCACAAUAC [Design #17] (Eterna round: R97, puzzle: Exclusion 1)	42 nM		27.9 nM			
